# According to paper PMC3492304, “Characterization of Arabidopsis FPS Isozymes and FPS Gene Expression Analysis Provide Insight into the Biosynthesis of Isoprenoid Precursors in Seeds” (PLoS ONE, 2012):
# T1: FPS1S (Arabidopsis thaliana, UniProt Q09152)
# T1 construct: gene FPS1; short isoform, 343 residues, lacking the 41-residue N-terminal extension of FPS1L; cDNA pcNC3; GST fusion in E. coli BL21(DE3), GST removed with Factor Xa leaving no extra residues; homodimer
# T1 sequence (Q09152 1-343 isoform Q09152-2): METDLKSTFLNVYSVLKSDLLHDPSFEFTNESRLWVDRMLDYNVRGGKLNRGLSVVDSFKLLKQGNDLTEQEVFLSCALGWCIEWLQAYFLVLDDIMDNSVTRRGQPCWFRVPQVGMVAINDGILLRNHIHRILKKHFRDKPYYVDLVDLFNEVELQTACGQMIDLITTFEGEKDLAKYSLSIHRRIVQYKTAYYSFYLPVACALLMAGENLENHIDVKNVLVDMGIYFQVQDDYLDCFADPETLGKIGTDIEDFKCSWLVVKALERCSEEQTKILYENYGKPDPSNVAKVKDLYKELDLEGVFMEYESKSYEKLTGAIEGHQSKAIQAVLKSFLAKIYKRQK
# T2: FPS2 (Arabidopsis thaliana, UniProt Q43315)
# T2 construct: full length, 342 residues; cDNA pcNC2; GST fusion in E. coli BL21(DE3), GST removed with Factor Xa leaving no extra residues; homodimer
# T2 sequence (Q43315 1-342): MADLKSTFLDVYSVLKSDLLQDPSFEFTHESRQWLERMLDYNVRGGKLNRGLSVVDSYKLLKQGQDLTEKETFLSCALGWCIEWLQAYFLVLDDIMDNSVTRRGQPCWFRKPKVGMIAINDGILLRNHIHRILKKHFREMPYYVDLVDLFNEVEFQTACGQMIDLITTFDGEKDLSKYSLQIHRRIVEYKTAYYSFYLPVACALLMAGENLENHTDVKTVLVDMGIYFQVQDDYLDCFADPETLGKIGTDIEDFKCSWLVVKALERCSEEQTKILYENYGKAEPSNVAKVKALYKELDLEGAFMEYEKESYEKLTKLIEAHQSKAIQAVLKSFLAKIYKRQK
# B1: FPS2 (Arabidopsis thaliana) (protein)
# chain: T2 sequence (Q43315 1-342)
# notes: full length, 342 residues; cDNA pcNC2; GST fusion in E. coli BL21(DE3), GST removed with Factor Xa leaving no extra residues; homodimer
# B2: FPS1S (Arabidopsis thaliana) (protein)
# chain: T1 sequence (Q09152 1-343 isoform Q09152-2)
# notes: short isoform, 343 residues, lacking the 41-residue N-terminal extension of FPS1L; cDNA pcNC3; GST fusion in E. coli BL21(DE3), GST removed with Factor Xa leaving no extra residues; homodimer
# Experiments:
# [1] = biological target: T1, FPS1S; assay: radiometric [[…]-14C]IPP incorporation, acid hydrolysis and hexane extraction; assay type: biochemical; details: product inhibition; FPP 0 to 1 mM; PIPES pH 7.0, 37°C
# [2] = biological target: T2, FPS2; assay: as above; assay type: biochemical; details: product inhibition; FPP 0 to 1 mM; PIPES pH 7.0, 37°C
# [3] = substrate: CC(C)=CCC/C(C)=C/COP(=O)(O)OP(=O)(O)O; assay: purified protein; assay type: biochemical, Arabidopsis thaliana; details: 100 µM IPP, 4 mM MgCl2, PIPES pH 7.0, 37°C, apparent Km, kcat per dimer
# [4] = substrate: CC(C)=CCOP(=O)(O)OP(=O)(O)O; assay: purified protein; assay type: biochemical, Arabidopsis thaliana; details: 100 µM IPP, 4 mM MgCl2, PIPES pH 7.0, 37°C, apparent Km, kcat per dimer
# [5] = substrate: C=C(C)CCO[P@@](=O)(O)OP(=O)(O)O; assay: purified protein; details: 200 µM DMAPP, 4 mM MgCl2, PIPES pH 7.0, 37°C, labelled compound, apparent Km, kcat per dimer
% reduction of activity at 1 mM [1],% reduction of activity at 1 mM [2],Molecule,Km [3] [µM],kcat [3] [s⁻¹],kcat/Km [3] [M⁻¹ s⁻¹],Km [4] [µM],kcat [4] [s⁻¹],kcat/Km [4] [M⁻¹ s⁻¹],Km [5] [µM],kcat [5] [s⁻¹],kcat/Km [5] [M⁻¹ s⁻¹]
~ 30%,~ 30%,CC(C)=CCC/C(C)=C/CC/C(C)=C/COP(=O)(O)OP(=O)(O)O [FPP],,,,,,,,,
,,B1,11.3 ± 1.0,2.21,195000,31.5 ± 0.5,3.29,103000,31.3 ± 0.5,4.48,143000
,,B2,8.3 ± 1.2,0.607,73300,22.7 ± 2.1,0.87,38300,23.1 ± 0.4,1.04,45000
